Paper PMC6545883

Test system: NC(=O)c1ccc[n+]([C@@H]2O[C@H](COP(=O)(O)OP(=O)(O)OC[C@H]3O[C@@H](n4cnc5c(N)ncnc54)[C@H](OP(=O)(O)O)[C@@H]3O)[C@@H](O)[C@H]2O)c1
Experiment: purified protein
Conditions: varied: cofactor

PtmO8 (Streptomyces platensis)
Km: (1.11 ± 0.11) × 10^3 µM
Vmax: 3.7 µM/min
kcat: 110 s⁻¹
kcat/Km: 100000 M⁻¹ s⁻¹
